What was measured:
[1] = biological target: His-HDAC1, recombinant (human, UniProt Q13547 1-482); assay: SPR
[2] = biological target: His-HDAC2, recombinant (UniProt Q92769 1-488); assay: SPR
Chain of His-HDAC2, recombinant (Q92769 whole entry): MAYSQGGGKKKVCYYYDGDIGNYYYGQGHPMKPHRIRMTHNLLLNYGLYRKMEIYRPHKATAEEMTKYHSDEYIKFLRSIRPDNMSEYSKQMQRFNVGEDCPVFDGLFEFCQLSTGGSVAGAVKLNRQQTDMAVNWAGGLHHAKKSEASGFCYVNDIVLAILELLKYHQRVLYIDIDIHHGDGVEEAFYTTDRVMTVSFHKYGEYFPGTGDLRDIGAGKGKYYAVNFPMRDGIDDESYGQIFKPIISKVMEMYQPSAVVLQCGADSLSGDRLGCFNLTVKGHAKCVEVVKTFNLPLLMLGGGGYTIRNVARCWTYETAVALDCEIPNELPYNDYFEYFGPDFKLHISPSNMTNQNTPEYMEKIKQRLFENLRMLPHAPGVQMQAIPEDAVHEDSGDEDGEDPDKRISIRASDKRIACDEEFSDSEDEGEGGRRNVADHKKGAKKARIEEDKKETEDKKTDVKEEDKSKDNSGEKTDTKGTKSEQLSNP

Chain of His-HDAC1, recombinant (Q13547 whole entry): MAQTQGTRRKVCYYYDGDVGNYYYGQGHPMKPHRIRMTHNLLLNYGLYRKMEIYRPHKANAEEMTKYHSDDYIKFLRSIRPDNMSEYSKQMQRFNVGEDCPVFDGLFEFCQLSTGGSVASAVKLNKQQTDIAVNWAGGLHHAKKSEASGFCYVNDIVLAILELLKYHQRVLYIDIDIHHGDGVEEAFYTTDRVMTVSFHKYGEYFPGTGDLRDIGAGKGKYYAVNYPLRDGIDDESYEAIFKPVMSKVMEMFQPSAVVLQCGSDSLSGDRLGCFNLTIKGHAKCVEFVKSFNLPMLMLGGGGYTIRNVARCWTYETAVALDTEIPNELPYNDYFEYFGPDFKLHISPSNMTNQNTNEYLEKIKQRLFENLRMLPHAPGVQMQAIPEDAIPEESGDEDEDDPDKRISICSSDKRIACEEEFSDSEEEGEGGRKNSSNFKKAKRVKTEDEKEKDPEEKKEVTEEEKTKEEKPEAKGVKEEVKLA

B1: GST-PFKL, recombinant (enzyme)
chain: MAAVDLEKLRASGAGKAIGVLTSGGDAQGMNAAVRAVTRMGIYVGAKVFLIYEGYEGLVEGGENIKQANWLSVSNIIQLGGTIIGSARCKAFTTREGRRAAAYNLVQHGITNLCVIGGDGSLTGANIFRSEWGSLLEELVAEGKISETTARTYSHLNIAGLVGSIDNDFCGTDMTIGTDSALHRIMEVIDAITTTAQSHQRTFVLEVMGRHCGYLALVSALASGADWLFIPEAPPEDGWENFMCERLGETRSRGSRLNIIIIAEGAIDRNGKPISSSYVKDLVVQRLGFDTRVTVLGHVQRGGTPSAFDRILSSKMGMEAVMALLEATPDTPACVVTLSGNQSVRLPLMECVQMTKEVQKAMDDKRFDEATQLRGGSFENNWNIYKLLAHQKPPKEKSNFSLAILNVGAPAAGMNAAVRSAVRTGISHGHTVYVVHDGFEGLAKGQVQEVGWHDVAGWLGRGGSMLGTKRTLPKGQLESIVENIRIYGIHALLVVGGFEAYEGVLQLVEARGRYEELCIVMCVIPATISNNVPGTDFSLGSDTAVNAAMESCDRIKQSASGTKRRVFIVETMGGYCGYLATVTGIAVGADAAYVFEDPFNIHDLKVNVEHMTEKMKTDIQRGLVLRNEKCHDYYTTEFLYNLYSSEGKGVFDCRTNVLGHLQQGGAPTPFDRNYGTKLGVKAMLWLSEKLREVYRKGRVFANAPDSACVIGLKKKAVAFSPVTELKKDTDFEHRMPREQWWLSLRLMLKMLAQYRISMAAYVSGELEHVTRRTLSMDKGF
[1]
  Kd: 2.18 nM
[2]
  Kd: 9.5 nM

— PMC12518634 (2025)
